US20130089497A1 (Genentech, published 2013)
Substitutions are numbered along the chain they refer to.

T1: cynomolgus FcRH5 on stably transfected SVT2 cells (cynomologous monkey)
T1 construct: also called cyno FcRH5; cynoFcRH5
T1 chain: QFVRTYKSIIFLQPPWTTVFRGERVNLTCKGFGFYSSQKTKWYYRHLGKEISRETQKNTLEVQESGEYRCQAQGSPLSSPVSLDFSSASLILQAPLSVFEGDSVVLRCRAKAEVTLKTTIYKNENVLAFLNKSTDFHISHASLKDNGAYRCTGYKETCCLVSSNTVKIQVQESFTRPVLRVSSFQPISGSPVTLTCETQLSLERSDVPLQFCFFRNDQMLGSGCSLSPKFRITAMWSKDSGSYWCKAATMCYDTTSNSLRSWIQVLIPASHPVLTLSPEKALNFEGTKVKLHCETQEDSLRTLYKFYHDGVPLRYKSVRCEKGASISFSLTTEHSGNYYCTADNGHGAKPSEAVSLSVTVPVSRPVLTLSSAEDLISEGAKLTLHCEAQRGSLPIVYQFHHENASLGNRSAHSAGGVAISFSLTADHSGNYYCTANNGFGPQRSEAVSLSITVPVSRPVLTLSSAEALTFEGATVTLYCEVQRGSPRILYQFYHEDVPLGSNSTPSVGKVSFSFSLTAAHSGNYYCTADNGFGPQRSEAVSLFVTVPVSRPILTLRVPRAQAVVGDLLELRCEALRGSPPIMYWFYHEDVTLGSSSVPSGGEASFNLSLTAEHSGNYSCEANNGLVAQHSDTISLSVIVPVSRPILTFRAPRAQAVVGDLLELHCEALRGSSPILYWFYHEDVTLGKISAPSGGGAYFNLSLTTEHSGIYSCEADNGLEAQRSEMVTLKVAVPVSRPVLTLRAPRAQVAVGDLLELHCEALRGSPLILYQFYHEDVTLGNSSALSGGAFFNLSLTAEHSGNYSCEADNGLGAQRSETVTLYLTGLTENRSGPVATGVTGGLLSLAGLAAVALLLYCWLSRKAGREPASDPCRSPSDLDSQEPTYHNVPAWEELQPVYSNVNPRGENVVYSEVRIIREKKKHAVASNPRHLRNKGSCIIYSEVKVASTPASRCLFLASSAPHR

T2: human FcRH5 on stably transfected cells (BJAB.huFcRH5, OPM2.huFcRH5) (human, UniProt Q96RD9 16-977)
T2 construct: also called BJAB-FcRH5; OPM2-FcRH5
T2 chain: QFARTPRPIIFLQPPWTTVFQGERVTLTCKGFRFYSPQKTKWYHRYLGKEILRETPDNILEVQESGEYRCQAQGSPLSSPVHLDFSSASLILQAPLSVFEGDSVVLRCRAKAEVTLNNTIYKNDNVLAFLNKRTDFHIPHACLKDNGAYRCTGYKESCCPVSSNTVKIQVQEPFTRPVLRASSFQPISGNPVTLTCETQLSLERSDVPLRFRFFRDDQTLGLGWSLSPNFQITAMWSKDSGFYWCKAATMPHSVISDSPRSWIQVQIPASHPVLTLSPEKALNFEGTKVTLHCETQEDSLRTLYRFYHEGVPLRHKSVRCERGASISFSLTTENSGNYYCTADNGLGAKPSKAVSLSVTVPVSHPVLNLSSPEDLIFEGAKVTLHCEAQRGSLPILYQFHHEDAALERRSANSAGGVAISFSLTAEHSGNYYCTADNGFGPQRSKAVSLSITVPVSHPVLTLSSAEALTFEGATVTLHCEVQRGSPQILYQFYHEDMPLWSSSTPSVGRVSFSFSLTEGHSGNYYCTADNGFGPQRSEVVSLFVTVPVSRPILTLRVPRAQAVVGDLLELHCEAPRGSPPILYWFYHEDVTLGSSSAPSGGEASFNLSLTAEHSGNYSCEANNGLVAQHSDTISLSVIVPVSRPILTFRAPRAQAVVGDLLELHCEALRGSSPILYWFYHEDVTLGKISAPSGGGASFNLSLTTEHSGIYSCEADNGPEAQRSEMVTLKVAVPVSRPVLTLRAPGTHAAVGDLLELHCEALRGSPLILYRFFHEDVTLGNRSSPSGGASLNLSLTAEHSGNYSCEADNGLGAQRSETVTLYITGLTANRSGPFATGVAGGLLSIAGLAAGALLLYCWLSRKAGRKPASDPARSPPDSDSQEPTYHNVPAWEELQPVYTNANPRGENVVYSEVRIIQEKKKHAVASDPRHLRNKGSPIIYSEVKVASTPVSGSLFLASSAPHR

B1: humanized anti-FcRH5 antibody 13G9 version 1 (antibody, human IgG1, V domains shown)
VH: EVQLVQSGGGLVQPGGSLRLSCAASGYTFTNYGMNWVRQAPGKGLEWVGWVNTYTGEPTYTDDFKGRFTFSVDTSKSTVYLQMNSLRAEDTAVYYCARRSIPYYYAMDYWGQGTLVTVS
VL: DIQMTQSPSSLSASVGDRVTITCKASQNVGSNVAWYQQKPGKAPKALIYSASYRYSGVPSRFSGSGSGTDFTLTISSLQPEDFATYYCQQYKTWTFGQGTKVEIKR
notes: also called hu13G9.v1; hu13G9 v1
B2: humanized anti-FcRH5 antibody hu13G9.1b (antibody, human IgG1, V domains shown)
VH: B1 VH
VL: B1 VL with Y87F
notes: Full IgG as hu13G9.1a (human IgG1, kappa)

Tests used:
[1] = biological target: T1, cynomolgus FcRH5 on stably transfected …; experiment: Scatchard analysis: 0.5 nM 125I-labeled antibody competed with the unlabeled antibody (50 to 0.02 nM) on SVT2.cyFcRH5 cells, 4 h at 4 C; St. Error 0.027
Experimental: (§1) To further determine binding of the FcRH5 murine antibodies and IgG clones, binding of iodinated IgG variants to OPM2 cells expressing human FcRH5 and SVT2 cells expressing cynomologous FcRH5, Scatchard analysis was performed (Table 9A).
(§2) For Scatchard analysis, 0.5 nM I¹²⁵ labeled murine or IgG clone anti-FcRH5 was competed against unlabeled murine or IgG clone anti-FcRH5, respectively, ranging from 50 to 0.02 nM (12 step 1:2 serial dilution) in the presence of a transfected OPM2 line stably expressing human-FcRH5 and a transfected SVT2 line stably expressing cynomologous-FcRH5. After a four hour incubation at 4° C., cells were washed and cell pellet counts were read by a gamma counter (1470 WIZARD Automatic Gamma Counter; Perkin Elmer, Walthem, Mass.). All points were done in triplicate and counted for 10 minutes. The average CPM was used for Kd calculation using the New Ligand (Genentech, South San Francisco, Calif.) program.

[2] = biological target: T2, human FcRH5 on stably transfected cells …; experiment: Scatchard analysis: 0.5 nM 125I-labeled antibody competed with the unlabeled antibody (50 to 0.02 nM) on OPM2.huFcRH5 cells, 4 h at 4 C; St. Error 0.012
Experimental: as §1, §2

[3] = biological target: T2, human FcRH5 on stably transfected cells …; experiment: Scatchard analysis: 0.5 nM 125I-labeled antibody competed with the unlabeled antibody (50 to 0.02 nM) on OPM2.huFcRH5 cells, 4 h at 4 C; St. Error 0.027
Experimental: as §1, §2

[4] = biological target: T1, cynomolgus FcRH5 on stably transfected …; experiment: Scatchard analysis: 0.5 nM 125I-labeled antibody competed with the unlabeled antibody (50 to 0.02 nM) on SVT2.cyFcRH5 cells (printed SVT2.cyFcRHS), 4 h at 4 C; St. Error 0.012
Experimental: as §1, §2

Row | Binder | Kd [1] [nM] | Kd [2] [nM] | Kd [3] [nM] | Kd [4] [nM]
1 | B1 | 0.56 | 0.2 |  | 
2 | B2 |  |  | 0.3 | 0.53
